In US10801027B2, “Inhibitors of SRSF1 to treat neurodegenerative disorders” (University of Sheffield, priority 2016, dated 2020):

Test system: N2A cells
Experiment: MTT cell proliferation assay
Format: cell-based, mouse
Conditions: G4C2×38 or C4G2×39 plasmids, 72 h
Procedure: Neuro-2a (N2A) cells were split into each well of a 24 well plate (30,000 cells/well). Each plate contained 4 wells with only media to serve as a blank and 4 wells/treatment. Cells were transfected for 72 hours with either 500 ng pcDNA 3.1, pcDNA 3.1/RAN-G4C2×15 RAN-G4C2×38-sense, RAN-C4G2×15 or RAN-C4G2×39-antisense; or 250 ng pcDNA6.2-GW/EmGFP-Control miR RNAi, pcDNA6.2-GW/EmGFP-mouse SRSF1 miR1+2 RNAi, p3×FLAG/SRSF1 (11-196), or p3×FLAG/SRSF1 (11-196)-m4 and 250 ng pcDNA 3.1, pcDNA 3.1/RAN-G4C2×38-sense or RAN-C4G2×39-antisense.
[…] Thiazolyl Blue Tetrazolum Bromide reagent (MTT) was added to each well and incubated in the dark at […] for 1 hour. Cells were subsequently lysed with equal volume MTT lysis buffer (20% SDS, 50% Dimethylformamide (DMF)) and incubated, shaking, at room temperature for 1 hour. Absorbance at 595 was then assessed with a PHERAstar FS (BMG Labtech). Experiments were performed in triplicate for each treatment. Absorbance data was analysed using PHERAstar MARS (BMG Labtech) and GraphPad Prism (version 6).

B1: SRSF1-m4: quadruple SRSF1 point mutant aa11-196, dominant negative, does not interact with TAP/NXF1 (protein)
chain: AGNNDCRIYVGNLPPDIRTKDIEDVFYKYGAIRDIDLKNRRGGPPFAFVEFEDPRDAEDAVYGRDGYDYDGYRLRVEFPASGAGTGRGGGGGGGGGAPRGRYGPPSAASENRVVVSGLPPSGSWQDLKDHMREAGDVCYADVYRDGTGVVEFVRKEDMTYAVRKLDNTKFRSHEGETAYIRVKVDG
modifications: left off: small tags and cut ends
neurotoxicity mediated by expression of the C9ORF72 repeat transcripts: suppress the neurotoxicity
